Laboratory results reported in IntAct's records for PubMed 20030366.

Assays:
apoe_human APOE = apoe_human APOE (UniProt P02649)
amrp_human LRPAP1 [1] = molecular target: amrp_human LRPAP1 (UniProt P30533)
amrp_human LRPAP1 [2] = molecular target: amrp_human LRPAP1 (UniProt P30533); remark: listed apart in the source

amrp_human LRPAP1, sequence (P30533 whole entry): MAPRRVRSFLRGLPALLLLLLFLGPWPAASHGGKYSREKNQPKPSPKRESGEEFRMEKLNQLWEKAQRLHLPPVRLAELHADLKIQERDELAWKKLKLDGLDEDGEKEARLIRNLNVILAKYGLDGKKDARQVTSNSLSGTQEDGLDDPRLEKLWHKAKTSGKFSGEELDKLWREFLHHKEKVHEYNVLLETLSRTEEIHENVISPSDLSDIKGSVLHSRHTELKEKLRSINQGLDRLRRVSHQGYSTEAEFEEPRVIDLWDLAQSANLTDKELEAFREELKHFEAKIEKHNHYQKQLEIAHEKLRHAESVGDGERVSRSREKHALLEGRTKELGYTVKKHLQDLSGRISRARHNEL
apoe_human APOE, sequence (P02649 whole entry): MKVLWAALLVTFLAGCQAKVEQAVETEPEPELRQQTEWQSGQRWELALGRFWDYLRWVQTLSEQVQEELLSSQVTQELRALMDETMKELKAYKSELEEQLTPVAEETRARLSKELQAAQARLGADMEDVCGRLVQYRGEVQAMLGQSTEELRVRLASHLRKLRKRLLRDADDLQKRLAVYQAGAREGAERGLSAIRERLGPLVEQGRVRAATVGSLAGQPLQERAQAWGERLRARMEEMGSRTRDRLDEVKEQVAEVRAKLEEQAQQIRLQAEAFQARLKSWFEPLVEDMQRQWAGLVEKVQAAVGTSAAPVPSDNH

effect of a mutation on the interaction (apoe_human APOE) | effect of a mutation on the interaction (amrp_human LRPAP1 [1]) | effect of a mutation on the interaction (amrp_human LRPAP1 [2]) | Substance
decreasing interaction strength | decreasing interaction strength |  | Prolow-density lipoprotein receptor-related protein 1 (Homo sapiens), Q07954 D2797A
 |  | decreasing interaction strength | Prolow-density lipoprotein receptor-related protein 1 (Homo sapiens), Q07954 D2797A;D2840A
